From the nanobody polyreactivity screen of Harvey et al. (2022)

Assay: yeast display, Sf9 membrane polyspecificity reagent, FACS + sequencing; frameworks hold sequencing errors
In short: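 Synthetic nanobody libraries on Saccharomyces cerevisiae BJ5465 were galactose-induced for 36–48 hours, stained 1 hour at 4 °C with 10% biotinylated, detergent-solubilized Sf9 membrane reagent and enriched on streptavidin microbeads. FACS then separated cells into low and high (top ~1%) gates by anti-HA (expression) and streptavidin (reagent binding) fluorescence. Genes were colony-PCR amplified, MiSeq 2 × 250 sequenced and CDR-length filtered. A clone's polyreactivity label is that of its gate of origin.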

Sequence	polyreactivity (PSR sort gate)
QVQLVESGGGLVQAGGSLRLSCAASGITFGSYAMGWYRQAPGKERELVAAINSRGSRTYYADSVKVRFTISRDNAKNTVYLQMNSLKPEDTAVYYCAASNSHVGPNDYWGQGTQVTVSS	high polyreactivity
QVQLVESGGGLVQAGGSLRLSCAASGRIIVDNTMGWYRQAPGQEREFVAVITSGGSTNYADSVKGRYTISRDNAKNTVYLQMNCLNPEDTAVYYCATEPGGYRFDDRPFQFGYWGQGTQVTVSS	low polyreactivity
QVQLEESGGGLVQAGGSLRLTCAASGITFGTYAMGWYRQAPGKEREFVAGYYADSVKGRFTISRDNAKNTVYLQMNSLKPEDTAVYYCAADYLYHDDVDYWGQGTQVTVSS	low polyreactivity
QVQLVESGGGLVQAGGSLRLSCAASGFTFKRNGMGWYRQAPGKERELVAAISSSGGNTYYADSVKGRFTISRDNAKNTVYLQMNSLKPEDTAVYDCAAASRYFDRDYWGQGTQVTVSS	high polyreactivity
QVQLGESVGGLVQAGGSLRLSCAASGSILFPYPMGWYRQAPGKERELVAAISWSGDSTRYADSVKGRFTISRDNAKNTVYLQMNSLKPEVTAVYYCATSSDATGTFAPMDSWGQGTQVTVSS	low polyreactivity
QVQLVESGGGLVQAGGSLRLSCAASGSTFSANGMGWYRQAPGKERELVAAISARGGITYYADSVKGRFTISRDNAKNTVYLQMNSVKPEDTAVYYCNQRKYYRSTKYNYWGQGTQVTVSS	high polyreactivity
EEELVESGGGLVQAGGRLRLSCAASGRIFDYNAMGWYRQAPAKQRELVAVIDYSGDSTYYADSVKGRFTISRDNAKNTVYLQLISLKPEDTAVYYCNADSRYSYSDYGYWGQGTQVNVSS	low polyreactivity
QVQLVESGGGLVQAGGSLRLSCAASGSTFAYYAMGWYRPAPGTERELVAAISSGGSTYYADSVKGRFTISRDNAKNTVYLQMNSLKPEDTAVYYCAADAVKASVSYIVPYAAYDYWGQGTQVTVSS	low polyreactivity
QVQLVESGGGLVQAGGSLRLSCAASGTFWWYAMGWYRQAPGKERELVASINRGGSTYYADSVKGRFTISRDNANNTVYLQMNSLKPEDTAVYYCNAGWIGRLTPYRRATYNYWGQGTQVTVSS	high polyreactivity
QVQHVQTLGGLDQAGGSLRLSFSDSGSNFGYYSIVLYRLAPGKERELVAAITGSGGGTYYADSVKGRLTISRDNAKNTVYLQMNSLKPEDTAVYYCAKDRNYRIYWGEYWGHGTQVTVSS	low polyreactivity
QVQLVESGGGLVQAGGSLRLSCAASGLTFSQNAMGWNRQPPGKERELVGAITRSGSTTHYADSVKGRFTISRDKAKNTVYLQMNSLKPEDTAVYYCAAVAFQTRYYYWGQGTQVTLSS	high polyreactivity
QVQLVESGGGLVQAGGSLRLSCAASGITFTPYAMGWYRQAPGKERELVAAITSGGSTNYADSVKGRFTISRDNAKNTVYLQMNSLKPEDTAVYYCAAGRWPAPWYTRNYWGQGTQVTVSS	low polyreactivity
QVQLVESGGGLVQAGGSLRLSCAASGRTFYGYAMGWYRQAPGKERELVAGISGRGTRTYYADSVKGRFTISRDNAKNTVYLQMNSLKPEDTAVYYCNAVSIGYYSQSLGLDYWGQGTQVTVSS	high polyreactivity
QVQLVESGGGLVQAGGSLRLSCAASGRTFYDYDMGWYRQAPGKERELVATIRRDGSTYYADSVKGRFTISRDNAKNTVYLQMNSLKPEDTAVYYCAKDGGYPLDEPEFDYWGQGTQVTVSS	low polyreactivity
QVQLVESGGGLVQAGGSLRLSCAASGRNFYYNAMGWYRQAPGKERELVASITGSGGSTYYADSVKGRFTISRDNAKNTVYLQMNSLKPEDTAVYYCAKREYLYPYYYVAKYDYWGQGTQVTVSS	low polyreactivity
QVQLVESGGGLVQAGGSLRLSCAASGSIFGRNAMGWYRQAPGKERELVAGISWSGGSTYYADSVKGRFTISRDNAKNTVYLQMNSLKPEDTAVYYCAADYWTWSGFTYYNYEYWGQGTQVTVSS	high polyreactivity
QVQLVESGGGIVQAGGSLRLSCAASGSIFDVYAMGWYRQAPGKERELVAAITWRGGNTYYADSVKGRFTISRDNAKNTVYLQMNSLKPEDTAVYYCNALHRIRYTPSSRYDYWGQGTQVTVSS	low polyreactivity
QVQLVESGGGLVQAGGSLRLSCAASGRTFSLYAMGWYRQAPGKERELVAAITLSAGSTYYADSVKGRFTISRDNAKNTVYLQMNSLKPEDTAVYYCNAAAYVWKSKQLLYVITYDYWGQGTQVTVSS	high polyreactivity
QVQLVESGGGLFQAGGSLRLSCAASGLTFYIYAMGWYRQAPGKEREFVAAIRRSGGRTYYADSVKGRFTISRDNAKNTVYLQMNSLKPEDTAVYYCNRYTQYRDRSDNHWGQGTQVTVSS	high polyreactivity
LVQLVESGGGLVQAGGSLRLSCAASGFIFFGEYVMGWYRQAPGKEREFVAAITDSDGSTYYADSVKGSFTISRDNGKNTVYLQMISLKPEDTAVYYCAAERVYSDMDYWGQGTQVTVSS	low polyreactivity
QVQLVESGGGLVQAGGSLRLSRAASGGTFFVYMGWYRQAPGKERELVADISGSGGGTYYADSVKGRFTISRDNAKNTVYLQMNSLKPEDTAVYYCATDVPTGIIRMYWGQGTQVTVSS	low polyreactivity
QVQLVESGGGLVQAGGSLRLSCAASGRIFGYYAMGWYRQAPGKERELVAAIRYSSGRTYYADSVKGRFTISRDNAKNNVYLQMNSLKPEDTAVYYCNAGYLFLRSYPHDYWGQGTQVTVSS	high polyreactivity

Sequence	polyreactivity (PSR sort gate)
QVQLVESGGGLVQAGGSLRLSCAASGLIFVSYAMGWYRQAPGKERELVAAISSGGSTYYADSVKGRFTISRDNAKNTVYLQMNSLKPEDTAVYYCAAEYVFRGYVGYDYWGQGTQVTVSS	low polyreactivity
QVQLVESGGGLVQAGGSLRLSCAASGRIFGVYAMGWYRQAPGKERELVAAISTRGGSTYYADSVKGRFTISRDNAKNTVYLQMNSLKPEDTAVYYCAAKSNNIATMDYWGQGTQVTVSS	low polyreactivity
QVQLVESGGGLVQAGGSLRLSCAASGGIFAYYAMGWYRQAPGKERELVAAITSRGGRTYYADSVKGRFTISRDNAKNTVYFQMNSLKPEDTEVYYCNAERFWPWDYDYWGQGTQVTVSS	high polyreactivity
QVQLVESGGGLVQAGGSLRLSCAASGSIFFSYAMGWYRQAPGKERELVAAITSSVDSTYYADSVKGRFTISRDNAKNTVYLQMNSLKPEDTAVYYCDARYRSGYYRYDYWGQGTQVTVSS	low polyreactivity
QVQLVESGGGLVQAGGSLRLSCAASGITFGYYAMGWYRQAHGKERELVAAITYSGGSTYYADSVKGRFTISRDNAKNTVYLQMNSIKPEDTAVYYCAADDGYTYYWAGYDSWGQGTQVSVSS	low polyreactivity
QVQLVESGGGLVQAGGSLRLSCAASGSTFAWYAMGWYRQAPGKERELVAGIWNTGRTYYADSVKGRFTISRDNAKNTVYLLMHSLKPEDTAVYYCAALYNSPNVTYYYWGQGTQVTVSS	high polyreactivity
QVQLVESGGGLVQAGGRLRLSCAASGSTFTHYAMGWYRQAPGKERELVAAISSGGSTYYADSVKGRFTISRDNAKNTVYLQMNSLKPEDTAVYYCAADYDWHDWWYPHDYWGQGTQVTVSS	low polyreactivity
QVQLVESGGGLVQAGGSLRLICAASVTTFPYYAMGWYRQAPGKERELVAAITSSGGSTYYADSVKGRFTISRDNAKNTVYLQMNSLIPEDTAVYYCAKGYGPYRQMNYWGQGTQVTVSS	low polyreactivity
QVQLVESGGGLVQAGGSLRLSCAASGITFSRNARGGERQAPGQERELVATITSGGSTNYADSVKGRFTISRDNAKNTVYLQMNSLKPEDTAVFYCNAVWNTFISGRSYDYWGQGTQVTVSS	low polyreactivity
QVQLVESGGGLVQAGGSLRLSCAASGRIFRRNAMGWYRQAPGKERELVAAISTRGSSTYYADSVKGRFTISRDNAKNTVYLQMNSLKPEDTAVYYCAADAYFIYSRYWYDYWGQGTQVTVSS	high polyreactivity
QVQLVESGGGLVQAGGSLSLSCAASGNNLYGNAMGWYRPAPGKERELVAGITSGGSTNYADSVKGRFTISRDNAKNTVYLQMNSLKREDTAVYYCNATSSGSIFGYDYWGQGTQVTVSS	low polyreactivity
QVQLVESGGGLVQAGGSLRLSCAASGSIFYYNAMGWYRQAPGKERELVAAISVSGGSTYYADSVKGRFTISRDNAKNTVYLQMNSLKPEDTAVYYCAAEWLYYYWLPGRADYLEYDYWGQGTQVTVSS	low polyreactivity
QVQLVESGGGLVQAGGSLRLSCAASGSIFPAYALGWYRPAPGKERELVAAITSSCGSTYYADSVKGRFTISRDNAKNTVYLQMNSLKPEDTAVYYCATVYPGDSYVYRFDYWGQGTQVTVSS	low polyreactivity
QVQLVESGGGLVQAGGSLRLSCAASGFTFKYYALGWYRQAPGKERELVAAIRGSGAGTYYADSVKGRFTISRDNSKNTVYLQMNSLKPEDTAVYYCNNRWTYKWDDYWGQGTQVTVSS	high polyreactivity
QVQLVESGGGLVQAGGSLRLSCAASGSIFLVYSMGWYRQAPGKERELVAAISRSGRTYADSVKGRFTISRDNAKNTVYLQMNSLKPEDTAVYYCNKLAVRPGYGSTYDYWGQGTQVTVSS	high polyreactivity
QVQLVESGGGLVQAGGSLRLSCAASGITFDDYDMGWYIQAPGKEREFVAAISFSGSSTYYADSVKGRFTISRDNAKNTVYLQMNSLKPEDTAVYYCAAVTTGTITSKYNYWGQGTQVTVSS	low polyreactivity
QVQLVESGGGLVQAGGSLRLSCAASGSTFDANAMGWYRQAPGKERELVATISDGGSTNYADSVKGRFTISRDNAKNTVYLQMNSLKPEDTAVYYCAAVKLFLGLGYDYWGQGTQVTVSS	low polyreactivity
QVQLVESGGGLVQAGGSLRLSCAASGSTFAYYAMGWYRPAPGTERELVAAISKSGGSTYYADSVKGRFTISRDNAKNTFYIQMISLKPEDTAVYYCAAGKFRYRSRFDFWGQGTQVTVSS	high polyreactivity
QVQLLESGGGLVQAGGSLRISCAASGSTFVSNAMGWYRQAPGKERELVAAISRSAGRTYYADSVKGRFTISRDTAKNTVYLQMTSLKPEDTAVYYCAARVVHCFGFWGQGTQVTVSS	high polyreactivity
RVQLVESGGGLFHAGGSLRLSCAASGRTFPTYDMGWYRQAPGKERELVAAINWSGGSTYYADSVKGRFTISRDNAKNTVYLQINSLKPEDTAVYYCNAELLRPSTLGVYLARNYWGQGSQVTVSS	low polyreactivity
QVQLVESGGGLVQAGGSLRLSCAASGSIFNRNAMGWYRQAPGKERELVAAISNSGARTYYADSVKGRFTISRDNAKNTVYLQMNSLKPEDTAVYYCNDVRRRSKLYNYWGQGTQVTVSS	high polyreactivity
